{"source": "patent US20230331820A1", "about": "(GlaxoSmithKline, published 2023)", "binders": {"B1": {"name": "mAb clone 35, 36 (antibody, V domains shown)", "VH": "QVQLKESGPGLVAPSQSLSITCTVSGFSLTSYGVHWVRQPPGKGLEWLGVIWAGGSTNYNSALMSRLSISKDNSKSQVFLKMNSLQTDDTAMYYCATDGYKFFYYAMDYWGQGTSVTVSS", "VL": "DIVMTQAAPSVPVTPGESVSISCRSSKSLLHSNGNTYLYWFLQRPGQSPQLLIYRMSNLASGVPDRFSGSGSGTAFTLRISRVEAEDVGVYYCMQHLEYPFTFGSGTKLEIK"}, "B2": {"name": "mAb clone 44 (antibody, V domains shown)", "VH": "EVQLQQSGPELEKPGASVKISCKASGYSFTGYNMNWVKQSNGKSLEWIGNIDPYYGGIRYNQKFKGKATLTVDKSSSTAYMQLKSLTSEDSAVYYCAREDRYLVHYYAMDYWGQGTSVTVSS", "VL": "QIVLTQSPAIMSASPGEKVTMTCSASSSISYMHWYQQKPGTSPKRWIYDTSKLASGVPARFSGSGSGTSYSLTISSMEAEDAATYYCHQRSSYPYTFGGGTKLEIK"}, "B3": {"name": "mAb clone 43 (antibody, V domains shown)", "VH": "DVKLVESGGGLVKPGGSLKLSCAASGFTFSSYTMSWVRQTPEKRLEWVATISSGGSYTYYPDSVKGRFTISRDNAKNTLYLQMSSLKAEDTAMYYCTRGGYGSSFENYFDYWGQGTTLTVSS", "VL": "DIVMSQSPSSLAVSAGEKVTMSCKSSQSLLNSRTRKNYLAWYQQKPGQSPKLLIYWASTRESGVPDRFTGSGSGTDFTLTISSVQAEDLAVYSCKQSYNLPLTFGAGTKLELK", "notes": "also called GEGI/43IIa"}, "B4": {"name": "mAb clone 14 (antibody, V domains shown)", "VH": "QVQLQQSGAELMKPGASVKISCKATGYTFSSYWIEWVKQRPGHGLEWIGEILPGSGSTNYNEKFKGKATFTADTSSNTAYMQLSSLTSEDSAVYYCASGSAGNYYGSSYEAMDYWGQGTSVTVSS", "VL": "DIVLTQSPASLAVSLGQRATISCRASKSVSTSGYSYMHWYQQKPGQPPKLLIYLASNLESGVPARFSGSGSGTDFTLNIHPVEEEDAATYYCQHSRELPLTFGAGTKLELK", "notes": "also called GEGI/14IIa"}, "B5": {"name": "mAb clone 47 (antibody, V domains shown)", "VH": "EVKLVESGGGLVQPGGSLRLSCATSGFTFTDYYMSWVRQPPGKALEWLGFIRNKANGYTTEYSASVKGRFTISRDNSQSILYLQMNTLRAEDSATYYCARDRPGFDYWGQGTTLTVSS", "VL": "NIVLTQSPASLAVSLGQRATISCRASESVDSFGNSFMHWYQQKPGQPPKLLIYLASNLESGVPARFSGSGSRTDFTLTIDPVEADDAATYYCQQNNEDPPWTFGGGTKLEIK"}, "B6": {"name": "mAb clone 34 (antibody, V domains shown)", "VH": "EVKLVESGGGLVQPGGSLKLSCATSGFTFSDYYMYWVRQTPEKRLEWVAYISNGGDSTYYPDTVKGRFTISRDNAKNTLYLQMSRLKSEDTAMYYCARSYYGNPFPYWGQGTLVTVSA", "VL": "ENVLTQSPAIMSASPGEKVTMTCRASSSVSSSYLHWYQQKSGASPKLWIYSTSNLASGVPARFSGSGSGTSYSLTISSVEAEDAATYYCQQYSGYPLTFGAGTKLELK"}, "B7": {"name": "mAb clone 39 (antibody, V domains shown)", "VH": "EVKLVESGGGLVQPGGSLKLSCAASGFTFSSYTMSWVRQTPEKRLEWVAYISNGGGSTYYPDTVKGRFTISRDNAKNTLYLQMSSLKSEDTAMYYCARGVSYYGDLYYFDYWGQGTTLTVSS", "VL": "DVVVTQTPLSLPVSFGDQVSISCRSSQSLANSYGNTYLSWYLHKPGQSPQLLIYGISNRFSGVPDRFSGSGSGTDFTLKISTIKPEDLGMYYCLQGTHQPWTFGGGTKLEIK"}, "B8": {"name": "mAb clone 40 (antibody, V domains shown)", "VH": "QIQLVQSGPELKKPGETVKISCKASGYTFTNYGMNWVKQAPGKGLKWMGWINTYTGEPTYADDFKGRFAFSLETSASTAYLQINNLKNEDTATYFCARSLYGYDEGYFDVWGAGTTVTVSS", "VL": "DIQMTQSPASLSASVGETVTITCRASGNIHNYLAWYQQKQGKSPQLLVYNAKTLADGVPSRFSGSGSGTQYSLKINSLQPEDFGSYYCQHFWSTPYTFGGGTKLEIK"}}, "data": [{"target": "T1, gEgI WT: HSV2 gEgI heterodimer comprising gE and gI wildtype ectodomains (HSV2, UniProt P89475 21-416; P06764 21-256)", "assay": "ELISA, supernatant", "values": [{"binder": "B1", "binding result": "binds"}, {"binder": "B2", "binding result": "binds"}, {"binder": "B3", "binding result": "binds"}, {"binder": "B4", "binding result": "binds"}, {"binder": "B5", "binding result": "binds"}]}, {"target": "T2, gE WT: HSV2 gE wildtype ectodomain (HSV2, UniProt P89475 21-416)", "assay": "ELISA, supernatant", "values": [{"binder": "B1", "binding result": "binds"}, {"binder": "B2", "binding result": "binds"}, {"binder": "B3", "binding result": "binds"}, {"binder": "B4", "binding result": "binds"}, {"binder": "B5", "binding result": "binds"}, {"binder": "B6", "binding result": "no binding"}]}, {"target": "T3, gI WT: HSV2 gI wildtype ectodomain (HSV2, UniProt P06764 21-256)", "assay": "ELISA, supernatant", "values": [{"binder": "B1", "binding result": "binds"}, {"binder": "B2", "binding result": "binds"}]}, {"target": "gEgI mutant (R320D): HSV2 gEgI mutant heterodimer comprising gE and gI ectodomains with mutation R320D in gE (HSV2, UniProt P89475 21-416; P06764 21-256)", "assay": "ELISA, supernatant", "values": [{"binder": "B1", "binding result": "binds"}, {"binder": "B2", "binding result": "binds"}, {"binder": "B3", "binding result": "binds"}, {"binder": "B4", "binding result": "binds"}, {"binder": "B5", "binding result": "no binding"}]}, {"target": "gEgI mutant (338): HSV2 gEgI mutant heterodimer comprising gE and gI ectodomains with insertion of a (HSV2, UniProt P89475 21-416; P06764 21-256)", "assay": "ELISA, supernatant", "values": [{"binder": "B1", "binding result": "binds"}, {"binder": "B2", "binding result": "binds"}, {"binder": "B3", "binding result": "binds"}, {"binder": "B4", "binding result": "binds"}, {"binder": "B5", "binding result": "no binding"}, {"binder": "B6", "binding result": "binds"}, {"binder": "B7", "binding result": "binds"}, {"binder": "B8", "binding result": "binds"}]}, {"target": "gEgI mutant (P319D): HSV2 gEgI mutant heterodimer comprising gE and gI ectodomains with mutation P319D in gE (HSV2, UniProt P89475 21-416; P06764 21-256)", "assay": "ELISA, supernatant", "values": [{"binder": "B1", "binding result": "binds"}, {"binder": "B2", "binding result": "binds"}, {"binder": "B3", "binding result": "binds"}, {"binder": "B4", "binding result": "binds"}, {"binder": "B5", "binding result": "no binding"}]}, {"target": "gEgI mutant (P317R): HSV2 gEgI mutant heterodimer comprising gE and gI ectodomains with mutation P317R in gE (HSV2, UniProt P89475 21-416; P06764 21-256)", "assay": "ELISA, supernatant", "values": [{"binder": "B1", "binding result": "binds"}, {"binder": "B2", "binding result": "binds"}, {"binder": "B3", "binding result": "binds"}, {"binder": "B4", "binding result": "binds"}, {"binder": "B5", "binding result": "no binding"}]}, {"target": "T2, gE WT: HSV2 gE wildtype ectodomain", "assay": "ELISA, supernatant", "remark": "another data set of the same source", "values": [{"binder": "B7", "binding result": "no binding"}, {"binder": "B8", "binding result": "no binding"}]}, {"target": "T3, gI WT: HSV2 gI wildtype ectodomain", "assay": "ELISA, supernatant", "remark": "another data set of the same source", "values": [{"binder": "B3", "binding result": "no binding"}, {"binder": "B4", "binding result": "no binding"}, {"binder": "B5", "binding result": "no binding"}, {"binder": "B6", "binding result": "no binding"}, {"binder": "B7", "binding result": "no binding"}, {"binder": "B8", "binding result": "no binding"}]}, {"target": "T1, gEgI WT: HSV2 gEgI heterodimer …", "assay": "SPR binning; gEgI captured by mAb 5", "units": {"RU": "RU"}, "values": [{"binder": "B6", "RU": -2.1}, {"binder": "B7", "RU": 0.6}, {"binder": "B8", "RU": 9}]}, {"target": "T1, gEgI WT: HSV2 gEgI heterodimer …", "assay": "SPR binning; gEgI captured by mAb 9", "units": {"RU": "RU"}, "values": [{"binder": "B6", "RU": -3.9}, {"binder": "B7", "RU": -1.5}, {"binder": "B8", "RU": 8.8}]}, {"target": "T1, gEgI WT: HSV2 gEgI heterodimer …", "assay": "SPR binning; gEgI captured by mAb 10", "units": {"RU": "RU"}, "values": [{"binder": "B6", "RU": 1.3}, {"binder": "B7", "RU": 2.3}, {"binder": "B8", "RU": 9.8}]}, {"target": "T1, gEgI WT: HSV2 gEgI heterodimer …", "assay": "SPR binning; gEgI captured by mAb 15", "units": {"RU": "RU"}, "values": [{"binder": "B6", "RU": -2.7}, {"binder": "B7", "RU": -4.8}, {"binder": "B8", "RU": -0.4}]}, {"target": "T1, gEgI WT: HSV2 gEgI heterodimer …", "assay": "SPR binning; gEgI captured by mAb 17", "units": {"RU": "RU"}, "values": [{"binder": "B6", "RU": -3.3}, {"binder": "B7", "RU": -0.6}, {"binder": "B8", "RU": 8.8}]}, {"target": "T1, gEgI WT: HSV2 gEgI heterodimer …", "assay": "SPR binning; gEgI captured by mAb 19", "units": {"RU": "RU"}, "values": [{"binder": "B6", "RU": -8.4}, {"binder": "B7", "RU": -7.2}, {"binder": "B8", "RU": 6.4}]}, {"target": "T1, gEgI WT: HSV2 gEgI heterodimer …", "assay": "SPR binning; gEgI captured by mAb 20", "units": {"RU": "RU"}, "values": [{"binder": "B6", "RU": 0.4}, {"binder": "B7", "RU": 3.1}, {"binder": "B8", "RU": 10}]}, {"target": "T1, gEgI WT: HSV2 gEgI heterodimer …", "assay": "SPR binning; gEgI captured by mAb 24", "units": {"RU": "RU"}, "values": [{"binder": "B6", "RU": -3.6}, {"binder": "B7", "RU": -0.9}, {"binder": "B8", "RU": 7.6}]}, {"target": "T1, gEgI WT: HSV2 gEgI heterodimer …", "assay": "SPR binning; gEgI captured by mAb 34", "units": {"RU": "RU"}, "values": [{"binder": "B6", "RU": -11.1}, {"binder": "B7", "RU": -6.4}, {"binder": "B8", "RU": 5.2}]}, {"target": "T1, gEgI WT: HSV2 gEgI heterodimer …", "assay": "SPR binning; gEgI captured by mAb 39", "units": {"RU": "RU"}, "values": [{"binder": "B6", "RU": -1.5}, {"binder": "B7", "RU": 1.3}, {"binder": "B8", "RU": 9}]}, {"target": "T1, gEgI WT: HSV2 gEgI heterodimer …", "assay": "SPR binning; gEgI captured by mAb 40", "units": {"RU": "RU"}, "values": [{"binder": "B6", "RU": -4.1}, {"binder": "B7", "RU": -1.2}, {"binder": "B8", "RU": 2.6}]}, {"target": "T1, gEgI WT: HSV2 gEgI heterodimer …", "assay": "SPR binning; gEgI captured by mAb 42", "units": {"RU": "RU"}, "values": [{"binder": "B6", "RU": -2.4}, {"binder": "B7", "RU": 0.1}, {"binder": "B8", "RU": 7.4}]}, {"target": "T1, gEgI WT: HSV2 gEgI heterodimer …", "assay": "SPR binning; gEgI captured by mAb 45", "units": {"RU": "RU"}, "values": [{"binder": "B6", "RU": -6.3}, {"binder": "B7", "RU": -5.4}, {"binder": "B8", "RU": 7.3}]}, {"target": "T1, gEgI WT: HSV2 gEgI heterodimer …", "assay": "Biacore SPR, gEgI CHO BMP1181 at 10 µg/ml for 180 s over the mAb", "units": {"RU Ag/250 RU mAbs": "RU Ag/250 RU mAbs"}, "values": [{"binder": "B6", "RU Ag/250 RU mAbs": 12.8}]}, {"target": "T1, gEgI WT: HSV2 gEgI heterodimer …", "assay": "Biacore SPR, gEgI HEK BMP1063 at 10 µg/ml for 180 s over the mAb", "units": {"RU Ag/250 RU mAbs": "RU Ag/250 RU mAbs"}, "values": [{"binder": "B6", "RU Ag/250 RU mAbs": 14.4}]}]}
